According to PMC3884217:

Molecular target: Nud1 pT78 peptide (budding yeast)

B1: Mob1 (construct not stated for this experiment) (natural protein)
chain: MSFLQNFHISPGQTIRSTRGFKWNTANAANNAGSVSPTKATPHNNTINGNNNNANTINNRADFTNNPVNGYNESDHGRMSPVLTTPKRHAPPPEQLQNVTDFNYTPSHQKPFLQPQAGTTVTTHQDIKQIVEMTLGSEGVLNQAVKLPRGEDENEWLAVHCVDFYNQINMLYGSITEFCSPQTCPRMIATNEYEYLWAFQKGQPPVSVSAPKYVECLMRWCQDQFDDESLFPSKVTGTFPEGFIQRVIQPILRRLFRVYAHIYCHHFNEILELNLQTVLNTSFRHFCLFAQEFELLRPADFGPLLELVMELRDR
- Kd: 2400 nM
